In article PMC9352680, “A comprehensive thermodynamic model for RNA binding by the Saccharomyces cerevisiae Pumilio protein PUF4” one finds Kd data, which are given here for 42 molecules.

First the molecules themselves.
T1: PUF4 RNA-binding domain (Saccharomyces cerevisiae, UniProt P25339 537-888)
T1 sequence: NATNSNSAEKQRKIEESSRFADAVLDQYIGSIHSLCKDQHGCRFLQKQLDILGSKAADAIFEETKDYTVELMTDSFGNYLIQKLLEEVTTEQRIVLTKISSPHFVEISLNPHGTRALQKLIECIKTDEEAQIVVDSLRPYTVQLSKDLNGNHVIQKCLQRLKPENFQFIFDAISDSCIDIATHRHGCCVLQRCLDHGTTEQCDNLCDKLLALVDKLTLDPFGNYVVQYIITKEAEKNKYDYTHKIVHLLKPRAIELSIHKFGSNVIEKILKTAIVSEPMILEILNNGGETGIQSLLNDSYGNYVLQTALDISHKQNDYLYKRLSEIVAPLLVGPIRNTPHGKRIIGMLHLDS

B1: Id_iii_S2_P3E.7_K3.3_C3.3_[T-1G]_H3.3_A3.1_F3.1_T3.2 (ssRNA)
RNA: UUUGAUUAAUAUGAUAUCGUUCUUUCUUCGACACUAUAUAUUCUUUCUCGAUAUCAUAUUAAUCUUU
B2: Id_iii_S2_P3E.9_K3.5_C3.3_[T-1A]_H3.1_A3.2_F3.2_T3.2 (ssRNA)
RNA: UUUGAUUAAUAUGAUAUCGUUCUUUCUUCAUGUAAAAAUAUUCUUUCUCGAUAUCAUAUUAAUCUUU
B3: Id_iii_S2_P3E.8_K3.4_C3.3_[T-3A]_H3.1_A3.2_F3.1_T3.2 (ssRNA)
RNA: UUUGAUUAAUAUGAUAUCGUUCUUUCUACUUGUAAAUAUAUUCUUUCUCGAUAUCAUAUUAAUCUUU
B4: Id_iii_S2_P3E.9_K3.5_C3.3_H3.1_A3.2_F3.2_T3.2_[A10G] (ssRNA)
RNA: UUUGAUUAAUAUGAUAUCGUUCUUUCUUCUUGUAAAAAUGUUCUUUCUCGAUAUCAUAUUAAUCUUU
B5: Id_iii_S2_P3E.8_K3.4_C3.3_[T-3C]_H3.1_A3.2_F3.1_T3.2 (ssRNA)
RNA: UUUGAUUAAUAUGAUAUCGUUCUUUCUCCUUGUAAAUAUAUUCUUUCUCGAUAUCAUAUUAAUCUUU
B6: Id_iii_S2_P3E.7_K3.3_C3.3_[T-1C]_H3.3_A3.1_F3.1_T3.2 (ssRNA)
RNA: UUUGAUUAAUAUGAUAUCGUUCUUUCUUCCACACUAUAUAUUCUUUCUCGAUAUCAUAUUAAUCUUU
B7: Id_iii_S2_P3E.9_K3.5_C3.3_[T-1G]_H3.1_A3.2_F3.2_T3.2 (ssRNA)
RNA: UUUGAUUAAUAUGAUAUCGUUCUUUCUUCGUGUAAAAAUAUUCUUUCUCGAUAUCAUAUUAAUCUUU
B8: Id_iii_S2_P3E.8_K3.4_C3.3_[C-2A]_H3.1_A3.2_F3.1_T3.2 (ssRNA)
RNA: UUUGAUUAAUAUGAUAUCGUUCUUUCUUAUUGUAAAUAUAUUCUUUCUCGAUAUCAUAUUAAUCUUU
B9: Id_iii_S2_P3E.7_K3.3_C3.3_H3.3_A3.1_F3.1_T3.2_[A10C] (ssRNA)
RNA: UUUGAUUAAUAUGAUAUCGUUCUUUCUUCUACACUAUAUCUUCUUUCUCGAUAUCAUAUUAAUCUUU
B10: Id_iii_S2_P3E.9_K3.5_C3.3_[T-1C]_H3.1_A3.2_F3.2_T3.2 (ssRNA)
RNA: UUUGAUUAAUAUGAUAUCGUUCUUUCUUCCUGUAAAAAUAUUCUUUCUCGAUAUCAUAUUAAUCUUU
B11: Id_iii_S2_P4E.5_K4.1_C4.3_[T-3C]_H4.1_A4.1_F4.1_T4.2 (ssRNA)
RNA: UUUGAUUAAUAUGAUAUCGUUCUUUCUCCUUGUAUAUUAGUUUCUUUCUCGAUAUCAUAUUAAUCUUU
B12: Id_iii_S2_P4E.8_K4.4_C4.3_[C-2A]_H4.1_A4.2_F4.1_T4.2 (ssRNA)
RNA: UUUGAUUAAUAUGAUAUCGUUCUUUCUUAUUGUAUUUUAGUUUCUUUCUCGAUAUCAUAUUAAUCUUU
B13: Id_iii_S2_P4E.6_K4.2_C4.3_H4.2_A4.1_F4.1_T4.2_[G10C] (ssRNA)
RNA: UUUGAUUAAUAUGAUAUCGUUCUUUCUUCUUAUAUAUUACUUUCUUUCUCGAUAUCAUAUUAAUCUUU
B14: Id_iii_S2_P4E.6_K4.2_C4.3_H4.2_A4.1_F4.1_T4.2_[G10T] (ssRNA)
RNA: UUUGAUUAAUAUGAUAUCGUUCUUUCUUCUUAUAUAUUAUUUUCUUUCUCGAUAUCAUAUUAAUCUUU
B15: Id_iii_S2_P4E.5_K4.1_C4.3_H4.1_A4.1_F4.1_T4.2_[T11C] (ssRNA)
RNA: UUUGAUUAAUAUGAUAUCGUUCUUUCUUCUUGUAUAUUAGCUUCUUUCUCGAUAUCAUAUUAAUCUUU
B16: Id_iii_S2_P4E.7_K4.3_C4.3_H4.3_A4.1_F4.1_T4.2_[T11C] (ssRNA)
RNA: UUUGAUUAAUAUGAUAUCGUUCUUUCUUCUACACUAUUAGCUUCUUUCUCGAUAUCAUAUUAAUCUUU
B17: Id_iii_S2_P4E.7_K4.3_C4.3_[T-1A]_H4.3_A4.1_F4.1_T4.2 (ssRNA)
RNA: UUUGAUUAAUAUGAUAUCGUUCUUUCUUCAACACUAUUAGUUUCUUUCUCGAUAUCAUAUUAAUCUUU
B18: Id_iii_S2_P4E.6_K4.2_C4.3_[C-2G]_H4.2_A4.1_F4.1_T4.2 (ssRNA)
RNA: UUUGAUUAAUAUGAUAUCGUUCUUUCUUGUUAUAUAUUAGUUUCUUUCUCGAUAUCAUAUUAAUCUUU
B19: Id_iii_S2_P4E.5_K4.1_C4.3_[C-2G]_H4.1_A4.1_F4.1_T4.2 (ssRNA)
RNA: UUUGAUUAAUAUGAUAUCGUUCUUUCUUGUUGUAUAUUAGUUUCUUUCUCGAUAUCAUAUUAAUCUUU
B20: Id_iii_S2_P4E.8_K4.4_C4.3_[T-3C]_H4.1_A4.2_F4.1_T4.2 (ssRNA)
RNA: UUUGAUUAAUAUGAUAUCGUUCUUUCUCCUUGUAUUUUAGUUUCUUUCUCGAUAUCAUAUUAAUCUUU
B21: Id_iii_S2_P4E.6_K4.2_C4.3_[T-3C]_H4.2_A4.1_F4.1_T4.2 (ssRNA)
RNA: UUUGAUUAAUAUGAUAUCGUUCUUUCUCCUUAUAUAUUAGUUUCUUUCUCGAUAUCAUAUUAAUCUUU
B22: Id_iii_S2_P4E.6_K4.2_C4.3_[T-1A]_H4.2_A4.1_F4.1_T4.2 (ssRNA)
RNA: UUUGAUUAAUAUGAUAUCGUUCUUUCUUCAUAUAUAUUAGUUUCUUUCUCGAUAUCAUAUUAAUCUUU
B23: Id_iii_S2_P4E.5_K4.1_C4.3_H4.1_A4.1_F4.1_T4.2_[G10T] (ssRNA)
RNA: UUUGAUUAAUAUGAUAUCGUUCUUUCUUCUUGUAUAUUAUUUUCUUUCUCGAUAUCAUAUUAAUCUUU
B24: Id_iii_S2_P4E.5_K4.1_C4.3_H4.1_A4.1_F4.1_T4.2_[G10A] (ssRNA)
RNA: UUUGAUUAAUAUGAUAUCGUUCUUUCUUCUUGUAUAUUAAUUUCUUUCUCGAUAUCAUAUUAAUCUUU
B25: Id_iii_S2_P4E.6_K4.2_C4.3_H4.2_A4.1_F4.1_T4.2_[G10A] (ssRNA)
RNA: UUUGAUUAAUAUGAUAUCGUUCUUUCUUCUUAUAUAUUAAUUUCUUUCUCGAUAUCAUAUUAAUCUUU
B26: Id_iii_S2_P4E.8_K4.4_C4.3_[C-2T]_H4.1_A4.2_F4.1_T4.2 (ssRNA)
RNA: UUUGAUUAAUAUGAUAUCGUUCUUUCUUUUUGUAUUUUAGUUUCUUUCUCGAUAUCAUAUUAAUCUUU
B27: Id_iii_S2_P4E.6_K4.2_C4.3_[T-1G]_H4.2_A4.1_F4.1_T4.2 (ssRNA)
RNA: UUUGAUUAAUAUGAUAUCGUUCUUUCUUCGUAUAUAUUAGUUUCUUUCUCGAUAUCAUAUUAAUCUUU
B28: Id_iii_S2_P4E.5_K4.1_C4.3_[T-1C]_H4.1_A4.1_F4.1_T4.2 (ssRNA)
RNA: UUUGAUUAAUAUGAUAUCGUUCUUUCUUCCUGUAUAUUAGUUUCUUUCUCGAUAUCAUAUUAAUCUUU
B29: Id_iii_S2_P4E.5_K4.1_C4.3_[T-1G]_H4.1_A4.1_F4.1_T4.2 (ssRNA)
RNA: UUUGAUUAAUAUGAUAUCGUUCUUUCUUCGUGUAUAUUAGUUUCUUUCUCGAUAUCAUAUUAAUCUUU
B30: Id_iii_S2_P4E.8_K4.4_C4.3_H4.1_A4.2_F4.1_T4.2_[G10C] (ssRNA)
RNA: UUUGAUUAAUAUGAUAUCGUUCUUUCUUCUUGUAUUUUACUUUCUUUCUCGAUAUCAUAUUAAUCUUU
B31: Id_iii_S2_P4E.6_K4.2_C4.3_[C-2T]_H4.2_A4.1_F4.1_T4.2 (ssRNA)
RNA: UUUGAUUAAUAUGAUAUCGUUCUUUCUUUUUAUAUAUUAGUUUCUUUCUCGAUAUCAUAUUAAUCUUU
B32: Id_iii_S2_P4E.7_K4.3_C4.3_[T-1C]_H4.3_A4.1_F4.1_T4.2 (ssRNA)
RNA: UUUGAUUAAUAUGAUAUCGUUCUUUCUUCCACACUAUUAGUUUCUUUCUCGAUAUCAUAUUAAUCUUU
B33: Id_iii_S2_P4E.8_K4.4_C4.3_[C-2G]_H4.1_A4.2_F4.1_T4.2 (ssRNA)
RNA: UUUGAUUAAUAUGAUAUCGUUCUUUCUUGUUGUAUUUUAGUUUCUUUCUCGAUAUCAUAUUAAUCUUU
B34: Id_iii_S2_P4E.7_K4.3_C4.3_H4.3_A4.1_F4.1_T4.2_[G10C] (ssRNA)
RNA: UUUGAUUAAUAUGAUAUCGUUCUUUCUUCUACACUAUUACUUUCUUUCUCGAUAUCAUAUUAAUCUUU
B35: Id_iii_S2_P4E.8_K4.4_C4.3_[T-1A]_H4.1_A4.2_F4.1_T4.2 (ssRNA)
RNA: UUUGAUUAAUAUGAUAUCGUUCUUUCUUCAUGUAUUUUAGUUUCUUUCUCGAUAUCAUAUUAAUCUUU
B36: Id_iii_S2_P4E.5_K4.1_C4.3_[C-2T]_H4.1_A4.1_F4.1_T4.2 (ssRNA)
RNA: UUUGAUUAAUAUGAUAUCGUUCUUUCUUUUUGUAUAUUAGUUUCUUUCUCGAUAUCAUAUUAAUCUUU
B37: Id_iii_S2_P4E.5_K4.1_C4.3_[C-2A]_H4.1_A4.1_F4.1_T4.2 (ssRNA)
RNA: UUUGAUUAAUAUGAUAUCGUUCUUUCUUAUUGUAUAUUAGUUUCUUUCUCGAUAUCAUAUUAAUCUUU
B38: Id_iii_S2_P4E.5_K4.1_C4.3_H4.1_A4.1_F4.1_T4.2_[G10C] (ssRNA)
RNA: UUUGAUUAAUAUGAUAUCGUUCUUUCUUCUUGUAUAUUACUUUCUUUCUCGAUAUCAUAUUAAUCUUU
B39: Id_iii_S2_P4E.7_K4.3_C4.3_H4.3_A4.1_F4.1_T4.2_[G10T] (ssRNA)
RNA: UUUGAUUAAUAUGAUAUCGUUCUUUCUUCUACACUAUUAUUUUCUUUCUCGAUAUCAUAUUAAUCUUU

For the series, the target named is T1, PUF4 RNA-binding domain. Nature of the series: Mg; RNA-MaP; 20 mM Na-HEPES pH 7.4, 30 mM KOAc, 0.75 mM MgCl2, 0.1% Tween-20, 5% glycerol, 0.1 mg/mL BSA, 2 mM DTT; 25 C; 0.0125-409.6 nM protein. The settings on record: tags: N-His6-TEV cleaved; C-SNAP kept, Cy3B-labelled; label: tethered on chip by stalled RNA polymerase.
By Kd is commonly meant the constant that tells how readily two partners part at equilibrium. Low readings indicate a tighter complex, high ones a looser complex. As for UCUCUUUGUUUUGUUAUCUCUU (ssRNA) [Ib_S1_P5E.1_K5.1_C5.1_H5.1_[A4T]_A5.1_[A7G]_F5.1_T5.1], binding was put at a Kd of 426 nM.
Molecule UCUCUUUGUUUUUUUAUCUCUU (ssRNA) [Ib_S1_P5E.1_K5.1_C5.1_H5.1_[A4T]_A5.1_[A7T]_F5.1_T5.1] displayed a Kd of 142 nM.
The molecule B1 had a Kd of 430 nM.
For B2, the Kd was 28.6 nM.
With B3, the affinity, expressed as Kd, was 3.74 nM.
Consider B4, for which the Kd was 661 nM.
The same measure for B5: 2.54 nM; for B6: 321 nM; for B7: 32.2 nM.
Molecule B8 registered a Kd of 26.3 nM.
With B9, binding was characterised by a dissociation constant (Kd) of 495 nM.
B10 had a Kd of 11.9 nM.
Then B11, with 0.191 nM; and B12, with 1.76 nM; and B13, with 5.27 nM.
In the case of B14, the Kd turned out to be 3.84 nM.
B15 yielded a Kd of 0.401 nM.
In turn, B16 displayed a Kd above 2300 nM.
Molecule B17 registered a Kd above 2300 nM.
The same measure for B18: 13.3 nM; for B19: 0.508 nM; for B20: 0.923 nM.
In turn, B21 yielded a Kd of 3.56 nM.
As for B22, binding was put at a Kd of 6.83 nM.
For B23, the Kd was 0.203 nM.
For B24, the Kd came to 0.37 nM.
As for B25, the Kd was found to be 10.7 nM.
For B26, the affinity, expressed as Kd, was 0.936 nM.
The same measure for B27: 10.9 nM; for B28: 0.205 nM; for B29: 0.201 nM.
As for B30, the Kd came out at 2.77 nM.
The molecule B31 gave a Kd of 20.2 nM.
Turning to B32, the Kd was above 2300 nM.
For B33, the Kd amounted to 1.45 nM.
Molecule B34 yielded a dissociation constant (Kd) of 494 nM.
Turning to B35, the affinity, expressed as Kd, was 1.28 nM.
For B36, the Kd stood at 1.08 nM.
In turn, B37 showed a Kd of 0.601 nM.
On to B38, for which the Kd is 0.519 nM.
In turn, B39 displayed a Kd of 486 nM.
Then UCUCUUUGUAGCAUUAUCUCUU (ssRNA) [Ib_S1_P5E.1_K5.1_C5.1_H5.1_A5.1_[T5G]_[T6C]_F5.1_T5.1], with 15.3 nM.
